We go through 39 variants from the RNAGym collection of RNA variant scans (doi:10.7554/elife.80360).

First the molecules themselves.
B1: CPEB3 Ribozyme (parent)
chain: GGGGGCCACAGCAGAAGCGUUCACGUCGCGGCCCCUGUCAGAUUCUGGUGAAUCUGCGAAUUCUGCUGU

The data set covers variants of B1. As to the kind of experiment: self-cleavage, relative activity (ratio to wild type); higher = more cleavage; co-transcriptional.
With GGGGGCCACAGCAGAAGCGUUCAAGUCGCGGCCCCUGUCAGAUUCUGGUGAAUCUGCGCAUUCUGCUGU [C24A A59C], the self-cleavage is 0.32.
In the case of GGGGGCCACAGCAGAAGCGUUCAGGUCGCGGCCCCUGUCAGAGUCUGGUGAAUCUGCGAAUUCUGCUGU [C24G U43G], the self-cleavage amounted to 0.249.
With GGGGGCCACAGCAGAAGCGUUCAAGUCGCGGCCCCCGUCAGAUUCUGGUGAAUCUGCGAAUUCUGCUGU [C24A U36C], the self-cleavage was 0.27.
With GGGGGCCACAGCAGAAGCGUUCAGGUCGCGGCCCCUGUCAGAUUCUGGUGAUUCUGCGAAUUCUGCUGU [C24G A52U] the figure was 0.409.
With GGGGGCCACAGCAGAAGCGUUCAGGUCGCGGCCCCUGUCAGAUUCUGGUGACUCUGCGAAUUCUGCUGU [C24G A52C] the figure was 0.391; with GGGGGCCACAGCAGAAGCGUUCAGGUCGCGGCCCCUGUCAGAUGCUGGUGAAUCUGCGAAUUCUGCUGU [C24G U44G], 0.308.
For the variant GGGGGCCACAGCAGAAGCGUUCAAGUCGCGGCCCCUGUCAGAUUCUGGUGAAUCUGAGAAUUCUGCUGU [C24A C57A], the self-cleavage amounted to 0.188.
In the case of GGGGGCCACAGCAGAAGCGUUCAAGUCGCCGCCCCUGUCAGAUUCUGGUGAAUCUGCGAAUUCUGCUGU [C24A G30C], the self-cleavage came out at 0.159.
Turning to GGGGGCCACAGCAGAAGCGUUCAAGUCGCGACCCCUGUCAGAUUCUGGUGAAUCUGCGAAUUCUGCUGU [C24A G31A], the self-cleavage is 0.372.
In the case of GGGGGCCACAGCAGAAGCGUUCAGGUCGCGGCCCCUGUCAGAUUCUGGUGAAUCUGCGAAUUCUUCUGU [C24G G65U], the self-cleavage is 0.243.
In the case of GGGGGCCACAGCAGAAGCGUUCAGGUCGCGGCCCCUGUCAGAUUCUGGUGAAUCUGCGAAUUCUCCUGU [C24G G65C] it was 0.242; in that of GGGGGCCACAGCAGAAGCGUUCAGGUCGCGGACCCUGUCAGAUUCUGGUGAAUCUGCGAAUUCUGCUGU [C24G C32A], 0.224; in that of GGGGGCCACAGCAGAAGCGUUCAAGUUGCGGCCCCUGUCAGAUUCUGGUGAAUCUGCGAAUUCUGCUGU [C24A C27U], 0.168.
Take GGGGGCCACAGCAGAAGCGUUCAAGUCGCGGCCCCUGUCAGAUUCUGGUGACUCUGCGAAUUCUGCUGU [C24A A52C]: the self-cleavage is 0.634.
In the case of GGGGGCCACAGCAGAAGCGUUCAAGUCGCGGCCCCUGUCAGAUUCUGGUGAUUCUGCGAAUUCUGCUGU [C24A A52U] it was 0.632; in that of GGGGGCCACAGCAGAAGCGUUCAAGUCGCGGCCCCUGUCAGAUUCUGGUGAAUCUGCCAAUUCUGCUGU [C24A G58C], 0.509.
In the case of GGGGGCCACAGCAGAAGCGUUCAGGUCGCGGCCCCUGUCAGAUUCUGGUGAAUCUGCGAGUUCUGCUGU [C24G A60G], the self-cleavage was 0.264.
Take GGGGGCCACAGCAGAAGCGUUCAAGUCGCGGCCCCUGUCAGAUUCUGGUGUAUCUGCGAAUUCUGCUGU [C24A A51U]: the self-cleavage came to 0.782.
Take GGGGGCCACAGCAGAAGCGUUCAAGUCGCGGCCCCUGUCAGAUUCUGGUGAAUCUGCGAAUUCUGCUCU [C24A G68C]: the self-cleavage was 0.825.
In the case of GGGGGCCACAGCAGAAGCGUUCAGGUCGCGGCCCCUGUCAGAUUCUGGUGAAUCUGCGAAUUCUGCUCU [C24G G68C], the self-cleavage turned out to be 0.578.
GGGGGCCACAGCAGAAGCGUUCAAGUCGCGGCCCCUGUCAGAUUCUGGUGAAUCUGCGAAUUCUGCUGC [C24A U69C]: the self-cleavage is 0.972.
Consider GGGGGCCACAGCAGAAGCGUUCAGGUCGCGGCCCCUGUCAGAUUCUGGUGAAUUUGCGAAUUCUGCUGU [C24G C54U], for which the self-cleavage was found to be 0.602.
In the case of GGGGGCCACAGCAGAAGCGUUCAAGUCGCGGCCCCUGUCAGAUUCUGGUGAAUCUGCGAAUUGUGCUGU [C24A C63G], the self-cleavage came out at 0.392.
As to GGGGGCCACAGCAGAAGCGUUCAGGUCGCGGCCCAUGUCAGAUUCUGGUGAAUCUGCGAAUUCUGCUGU [C24G C35A], the self-cleavage turned out to be 0.167.
Consider GGGGGCCACAGCAGAAGCGUUCUCGUCGCGGCCCCUGUCAGAUUCUGGUGAAUCUGCGAAUUCUGCUGG [A23U U69G], for which the self-cleavage worked out at 1.04.
On to GGGGGCCACAGCAGAAGCGUUCAAGUCGCGGCCCCUGUCAGAUUCUGGUGAAUCCGCGAAUUCUGCUGU [C24A U55C], for which the self-cleavage was determined as 0.434.
For the variant GGGGGCCACAGCAGAAGCGUUCAAGUCGCGGCCCCUGUCAGAUUCUGGUGAAUCAGCGAAUUCUGCUGU [C24A U55A], the self-cleavage worked out at 0.617.
For GGGGGCCACAGCAGAAGCGUUCAAGUCGCGGCCCCUUUCAGAUUCUGGUGAAUCUGCGAAUUCUGCUGU [C24A G37U], the self-cleavage was found to be 0.231.
With GGGGGCCACAGCAGAAGCGUUCAGGUCGGGGCCCCUGUCAGAUUCUGGUGAAUCUGCGAAUUCUGCUGU [C24G C29G] the figure was 0.194; with GGGGGCCACAGCAGAAGCGUUCAGGUCGUGGCCCCUGUCAGAUUCUGGUGAAUCUGCGAAUUCUGCUGU [C24G C29U], 0.0935.
Regarding GGGGGCCACAGCAGAAGCGUUCAAGUCGCGGCCCCUGUCAGAUUCUGGUUAAUCUGCGAAUUCUGCUGU [C24A G50U], the self-cleavage was 0.722.
Regarding GGGGGCCACAGCAGAAGCGUUCAGGUCGCGGCCCCUGUCAGAUUCUGGUGUAUCUGCGAAUUCUGCUGU [C24G A51U], the self-cleavage was 0.353.
As to GGGGGCCACAGCAGAAGCGUUCAGGUCGCGUCCCCUGUCAGAUUCUGGUGAAUCUGCGAAUUCUGCUGU [C24G G31U], the self-cleavage stood at 0.215.
In the case of GGGGGCCACAGCAGAAGCGUUCAGGUCGCGGCCCCUGUCAAAUUCUGGUGAAUCUGCGAAUUCUGCUGU [C24G G41A], the self-cleavage came to 0.247.
In the case of GGGGGCCACAGCAGAAGCGUUCAGGUCGCGGCCCCUGUCAUAUUCUGGUGAAUCUGCGAAUUCUGCUGU [C24G G41U] it was 0.207; in that of GGGGGCCACAGCAGAAGCGUUCAGGUCGCGGCCCCUGACAGAUUCUGGUGAAUCUGCGAAUUCUGCUGU [C24G U38A], 0.177; in that of GGGGGCCACAGCAGAAGCGUUCAAGUCGCGGCCCCUGUCAGAUUCUGGUGAAUCUGCGAAUGCUGCUGU [C24A U62G], 0.425.
GGGGGCCACAGCAGAAGCGUUCAAGUCGCGGCCUCUGUCAGAUUCUGGUGAAUCUGCGAAUUCUGCUGU [C24A C34U]: the self-cleavage was 0.803.
For GGGGGCCACAGCAGAAGCGUUCAAGUCGCGGCCCCUGUCAGACUCUGGUGAAUCUGCGAAUUCUGCUGU [C24A U43C], the self-cleavage stood at 0.631.
